Publication PMC3267196

How the values were obtained:
[1] = target: Glu36 (UniProt position 36, GVPQYEYLVAM); assay: IR (low-temperature light-induced difference FTIR); settings: 170 K, 2 mM sodium phosphate (pH 7.0) for washing liposomes
[2] = target: Asp217 (UniProt position 217, GFSFLDLHGLR); assay: IR (time-resolved FTIR, quoted from ref 74); settings: Unphotolysed ASR; the protonation state of Asp217 is inferred from whether it accepts a proton on M formation; cited from earlier work

In the case of “Anabaena sensory rhodopsin (ASR) (Anabaena (Nostoc) sp. PCC 7120)”, the pKa ([1]; buffers for pH 5 and 9 not stated, Dark-adapted ASR (97% all-trans retinal), unphotolysed state versus L intermediate formed by >580 nm illumination) is reported as “between 6 and 7” and the pKa ([1]; not stated for pH 5 and 9, Dark-adapted ASR (predominantly all-trans), unphotolysed state bands in the L minus ASR difference spectrum) is reported as “about 7”.
For “Anabaena sensory rhodopsin (ASR), as studied by Shi et al. 2006 (Anabaena (Nostoc) sp. PCC 7120)”, the pKa [2] is listed as “between 6 and 7”.
